Test results taken from US6028055A, “Receptor selective BNP” (Genetech, Inc., priority 1997, dated 2000).
Where no end group is shown, it is not given here.

What follows are substances tested against NPR-A IgG fusion (A-IgG) (Homo sapiens, UniProt P16066) (assay: Phage ELISA measurement of phagemid affinities for NPR-A (A-IgG)). Settings: ratio of mutant BNP phagemid binding affinity (EC50) to ANP phagemid binding to A-IgG; clones after 7 rounds of selection.
Experimental: ELISA measurement of phagemic affinities for NPR-A and NPR-C: Phage ELISA were determined according to the method of Cunningham, B. C. et al., (1994) EMBO J., 13:2508-2515. Microtiter plates (Nunc, Maxisorb, 96 wells) were coated with purified A-IgG (at 1 μg/ml) in 50 mM sodium bicarbonate (pH 9.6) at 4 C overnight. The plates were blocked with 5% skimmed milk and washed with PBS, 0.01% TWEEN 20. Serial dilutions of competing receptor (A-IgG or C-IgG) and a subsaturating concentration of BNP-phagemid were added to wells in 100 μl of binding buffer (2% skim milk in PBS). After 2 h the plates were washed, and the bound phagemid stained with sheep anti-M13 HRP conjugate antibody (Pharmacia #279402-01),and assayed.
The amino acid residues found at each randomized position after 7 rounds of selection are shown in Table I. 8 segments of 3 to 5 amino acids randomized by primer mutagenisis are indicated at the top of the figure, immediately above the numbering for 32 amino acid human BNP, the sequence of which is shown in single letter amino acid code. Cysteine residues 10 and 26 were not mutagenized since they form a disulfide bond essential for binding to NPR-A. The substitution of K3 for D (Display BNP) is analogous to the acidic substitution R3D in ANP used to facilitate secretion expression in E. coli (Cunningham et al. (1994)). Individual clones were picked and the DNA sequence was determined. The number of times a particular sequence was observed is shown on the left. The ratio of mutant BNP phagemid binding affinity to ANP phagemid binding to A-IgG is shown on the right. Mutations that occur outside of the mutagenesis window result from polymerase misincorporation mutations that render a selection advantage to the mutant BNP phagemid (Cunningham et al. (1994)).

NPR-A IgG fusion (A-IgG), sequence (P16066 with tags, fused parts or gaps limits assumed): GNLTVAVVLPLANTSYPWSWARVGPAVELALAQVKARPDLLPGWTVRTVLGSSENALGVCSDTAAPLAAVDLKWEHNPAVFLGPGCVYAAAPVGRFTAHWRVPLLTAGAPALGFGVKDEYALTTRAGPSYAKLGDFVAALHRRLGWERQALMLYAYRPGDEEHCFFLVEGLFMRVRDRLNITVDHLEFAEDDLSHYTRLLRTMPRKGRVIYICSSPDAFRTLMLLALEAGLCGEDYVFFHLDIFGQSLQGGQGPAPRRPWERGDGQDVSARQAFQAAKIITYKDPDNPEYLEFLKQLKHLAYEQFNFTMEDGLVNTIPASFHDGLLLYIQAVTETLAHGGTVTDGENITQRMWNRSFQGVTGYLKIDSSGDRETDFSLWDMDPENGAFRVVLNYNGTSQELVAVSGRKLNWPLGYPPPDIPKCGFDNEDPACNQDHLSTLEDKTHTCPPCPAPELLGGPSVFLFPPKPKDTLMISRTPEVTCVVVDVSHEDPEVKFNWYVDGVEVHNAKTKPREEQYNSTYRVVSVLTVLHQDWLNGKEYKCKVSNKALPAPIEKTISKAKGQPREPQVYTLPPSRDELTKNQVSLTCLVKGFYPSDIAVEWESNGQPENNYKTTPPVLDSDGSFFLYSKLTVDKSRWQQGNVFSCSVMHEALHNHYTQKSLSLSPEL

“hBNP Lys14Gln, Ser19Arg, Ser20His, Ser22Thr (SPKMVQGSGCFGRQMERIRHSTGLGCKVLRRH; displayed on phagemid) [Q R H S T, measured as BNP-phagemid clone (Display BNP, K3D)]” was tested. Which “Binding to NPR-A ratio of mutant/hANP” value did it give?
The value was 4.0.

Which “Binding to NPR-A ratio of mutant/hANP” value does the source give for “G R R: BNP-phagemid clone of Table I (Display BNP, K3D); substitutions seem those of hBNP Arg13Gly, Lys14Arg, Ser19Arg” here?
Its value is 1.6.

“hBNP Lys14Asn, Ser19Gly, Ser20Arg, Ser21Ala (SPKMVQGSGCFGRNMERIGRASGLGCKVLRRH; ends and bridges not checked; cysteine pairing not given here) [N G R A, measured as BNP-phagemid clone (Display BNP, K3D)]” was tested. Which “Binding to NPR-A ratio of mutant/hANP” value did it give?
Its value is 4.8.

With “F W R: BNP-phagemid clone of Table I (Display BNP, K3D); substitutions as in hBNP Gly23Phe, Leu24Trp, Gly25Arg (SEQ ID NO:2) (SPKMVQGSGCFGRKMERISSSSFWRCKVLRRH; ends and bridges not checked; cysteine pairing not given here)” as the substance, how does the “Binding to NPR-A ratio of mutant/hANP” value read?
The value was 0.8.

“hBNP Gly23Met, Leu24Phe, Gly25Arg (SPKMVQGSGCFGRKMERISSSSMFRCKVLRRH; ends and bridges not checked; cysteine pairing not given here) [M F R, measured as BNP-phagemid clone (Display BNP, K3D)]” was tested. Which “Binding to NPR-A ratio of mutant/hANP” value did it give?
Its value is 3.0.

For “hBNP Lys14Asn, Ser19Arg, Ser20Gly, Ser21Met (SPKMVQGSGCFGRNMERIRGMSGLGCKVLRRH; ends and bridges not checked; cysteine pairing not given here) [N R G M, measured as BNP-phagemid clone (Display BNP, K3D)]”, which “Binding to NPR-A ratio of mutant/hANP” value is on record?
The value was 2.9.

With “hBNP Lys14Asn, Ser19Arg, Ser21Trp [N R S W]” as the substance, how does the “Binding to NPR-A ratio of mutant/hANP” value read?
Its value is 4.4.

With “hBNP Lys14Asn, Ser19Gly, Ser20Gly, Ser21Leu (SPKMVQGSGCFGRNMERIGGLSGLGCKVLRRH; ends and bridges not checked; cysteine pairing not given here) [N G G L, measured as BNP-phagemid clone (Display BNP, K3D)]” as the substance, how does the “Binding to NPR-A ratio of mutant/hANP” value read?
Its value is 3.9.

Which “Binding to NPR-A ratio of mutant/hANP” value does the source give for “hBNP Lys14Asn, Ser19Arg, Ser20Gly (SPKMVQGSGCFGRNMERIRGSSGLGCKVLRRH; ends and bridges not checked; cysteine pairing not given here) [N R G, measured as BNP-phagemid clone (Display BNP, K3D)]” here?
The value was 3.9.

For “hBNP Lys14Asn, Ser19Ala, Ser20Arg, Ser21Glu (SPKMVQGSGCFGRNMERIARESGLGCKVLRRH; ends and bridges not checked; cysteine pairing not given here) [N A R E, measured as BNP-phagemid clone (Display BNP, K3D)]”, which “Binding to NPR-A ratio of mutant/hANP” value is on record?
The value was 1.3.

For “hBNP Lys14Asn, Ser19Arg, Ser20Thr, Ser21Lys (SPKMVQGSGCFGRNMERIRTKSGLGCKVLRRH; ends and bridges not checked; cysteine pairing not given here) [N R T K, measured as BNP-phagemid clone (Display BNP, K3D)]”, which “Binding to NPR-A ratio of mutant/hANP” value is on record?
Its value is 4.4.

How did the “Binding to NPR-A ratio of mutant/hANP” value turn out when “hBNP Lys14Asn, Ser19Arg (SPKMVQGSGCFGRNMERIRSSSGLGCKVLRRH; ends and bridges not checked; cysteine pairing not given here) [N R, measured as BNP-phagemid clone (Display BNP, K3D)]” was run?
The value was 3.5.

Which “Binding to NPR-A ratio of mutant/hANP” value does the source give for “hBNP Lys14Thr, Ser19Arg, Ser20His, Ser21Gly, Ser22Gly (SPKMVQGSGCFGRTMERIRHGGGLGCKVLRRH; displayed on phagemid) [T R H G H, measured as BNP-phagemid clone (Display BNP, K3D)]” here?
Its value is 5.0.

For “hBNP Lys14Asn, Ser19Arg, Ser20His, Ser21Leu (SPKMVQGSGCFGRNMERIRHLSGLGCKVLRRH; ends and bridges not checked; cysteine pairing not given here) [N R H L, measured as BNP-phagemid clone (Display BNP, K3D)]”, which “Binding to NPR-A ratio of mutant/hANP” value is on record?
The value was 1.0.

How did the “Binding to NPR-A ratio of mutant/hANP” value turn out when “hBNP Gly23Leu, Leu24Trp, Gly25Arg (SPKMVQGSGCFGRKMERISSSSLWRCKVLRRH; ends and bridges not checked; cysteine pairing not given here) [L W R, measured as BNP-phagemid clone (Display BNP, K3D)]” was run?
The value was 2.0.

Which “Binding to NPR-A ratio of mutant/hANP” value does the source give for “hBNP Gly23Met, Leu24Trp, Gly25Arg [M W R]” here?
The value was 1.0.

How did the “Binding to NPR-A ratio of mutant/hANP” value turn out when “hBNP Lys14Asn, Ser19Arg, Ser20Asn, Ser21Thr (SPKMVQGSGCFGRNMERIRNTSGLGCKVLRRH; ends and bridges not checked; cysteine pairing not given here) [N R N T, measured as BNP-phagemid clone (Display BNP, K3D)]” was run?
The value was 8.7.

With “hBNP Lys14Asn, Ser19Gly, Ser20His, Ser21Leu (SPKMVQGSGCFGRNMERIGHLSGLGCKVLRRH; displayed on phagemid) [N G H L, measured as BNP-phagemid clone (Display BNP, K3D)]” as the substance, how does the “Binding to NPR-A ratio of mutant/hANP” value read?
Its value is 14.8.

With “hBNP Lys14Asn, Ser19Arg, Ser20Lys, Ser21Thr (SPKMVQGSGCFGRNMERIRKTSGLGCKVLRRH; ends and bridges not checked; cysteine pairing not given here) [N N K T, measured as BNP-phagemid clone (Display BNP, K3D)]” as the substance, how does the “Binding to NPR-A ratio of mutant/hANP” value read?
Its value is 4.2.

How did the “Binding to NPR-A ratio of mutant/hANP” value turn out when “hBNP Gly23Met, Leu24Tyr, Gly25Arg (SPKMVQGSGCFGRKMERISSSSMYRCKVLRRH; ends and bridges not checked; cysteine pairing not given here) [M Y R, measured as BNP-phagemid clone (Display BNP, K3D)]” was run?
Its value is 2.4.
